From publication PMC9031227, “Structure-Activity Relationship Investigations of Novel Constrained Chimeric Peptidomimetics of SOCS3 Protein Targeting JAK2” (Pharmaceuticals, 2022)
Where no end group is shown, it is not given here. [ ]: non-standard residue; d: D form. S5 = C=CCCC[C@](C)(N)C(=O)O

Target: T1, His-tagged Catalytic Domain of JAK2 (residues 826–1132) (UniProt O60674 826-1132, RED-tris-NTA dye bound to the His tag (His-Tag labeling Kit RED-tris-NTA))
T1 construct: JAK2 (Janus Kinase 2), catalytic domain, residues 826-1132; also called JAK2 catalytic domain; Janus Kinase 2; source: bought: Carna Biosciences
Assay: MST; Monolith NT 115; His-tagged JAK2 catalytic domain labelled with RED-tris-NTA kept constant, peptides in increasing concentrations; standard capillaries, 25 °C, 50 mM Tris-HCl, 150 mM NaCl, 0.05% Brij35, 1 mM DTT, 10% glycerol, 15% TFE, pH 7.5; fit by Langmuir binding isotherm
Details: both partners purified

T1 sequence (O60674 826-1132): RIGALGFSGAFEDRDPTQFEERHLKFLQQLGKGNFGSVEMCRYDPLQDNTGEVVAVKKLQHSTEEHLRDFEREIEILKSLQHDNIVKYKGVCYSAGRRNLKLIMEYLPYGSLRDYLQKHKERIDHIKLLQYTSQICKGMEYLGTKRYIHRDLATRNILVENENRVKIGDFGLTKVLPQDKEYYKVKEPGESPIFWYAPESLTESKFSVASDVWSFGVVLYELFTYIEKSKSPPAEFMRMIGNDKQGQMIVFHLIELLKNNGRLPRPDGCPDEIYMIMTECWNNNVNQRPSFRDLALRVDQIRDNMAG

Kd: 8 µM
Binder: FSSKSEYQL[S5]FYWS[S5]VTG-OH (not fully specified; bridges not given here) [linear version of KIRCONG i/i+5 peptide]
